Test results from the RNAGym collection of RNA variant scans (doi:10.7554/elife.90254).

B1: LINE1-full (parent)
chain: UACGUAGGUGGUUUUCCCCUGAUAGUGCUAAGGGGGCCUGGAAGUUUGGACUGGGCAGAGCUCAACACAGCGUGGCAAAGUGGCUGUGGCUAGACUGCCUCUCUGGAUUCCUCGUCACUCAGCAGGGCAUCUCUGAGAGAAAUGCC

Variants of: B1
Assay: self-cleavage, relative activity (ratio to wild type); higher = more cleavage; in vitro, sequencing; the parent is a self-cleaving ribozyme

Variant | self-cleavage
UACGUAGGUGGUUUUCCCCUGAUAGUGCUAAGGGGGCCUGGAAGUUUGGACUGGGCAGAGCUCAACACAGCGUGGCAAAGUGGCUGUUGCUAGACUGCCUCUCUGGAUUCCUCGUCACUCAGCAGAGCAUCUCUGAGAGAAAUGCC [G88U G126A] | 0
UACGUAGGUGGUUUUCCCCUGAUAGUGCUAAGGGGGCCUGGAAGUUUGGACUGGGCAGAGCUCAACACAGCGUGGCAAAGAGGCUGUGACUAGACUGCCUCUCUGGAUUCCUCGUCACUCAGCAGGGCAUCUCUGAGAGAAAUGCC [U81A G89A] | 0
UACGUAGGUGGUUUUCCCCUGAUAGUGCUAAGGGGGCCCGGAAGUUUGGACUGGGCAGAGCUCAACACAGCGUGGCAAAGUGGCUGUGGCUAGACUGCCUCUCUGGAUUCCUCGUCACUCAGCAGGACAUCUCUGAGAGAAAUGCC [U39C G127A] | 1.03
UACGUGGGUGGUUUUCCUCUGAUAGUGCUAAGGGGGCCUGGAAGUUUGGACUGGGCAGAGCUCAACACAGCGUGGCAAAGUGGCUGUGGCUAGACUGCCUCUCUGGAUUCCUCGUCACUCAGCAGGGCAUCUCUGAGAGAAAUGCC [A6G C18U] | 0.59
UACGUAGGUGGUUUUCCCCUGAUAGUGCUAAGGGGGCCUGGAAGUUUGGACUGGGCAGAGCUCAACACAGCGUGGCAAGGUGACUGUGGCUAGACUGCCUCUCUGGAUUCCUCGUCACUCAGCAGGGCAUCUCUGAGAGAAAUGCC [A79G G83A] | 1.03
UACGUAGGUGGCUUUCCCCUGAUAGUGCUAAGGGGGCCUGGAAGUUUGGACUGGGCAGAGCUCAACACAGCGUGGCAAAGUGGCUGUGGCUAGACUGCCUCUCUGGAAUCCUCGUCACUCAGCAGGGCAUCUCUGAGAGAAAUGCC [U12C U108A] | 1.25
UACGUAGGUGGUUUUCCCCUGAUAGUGCUAAGGGGGCCUGGAAGUUUGGACGGGGCAGAGCUCAACACAGCGUGGCAAAGUGGCUGUGGCUAGACCGCCUCUCUGGAUUCCUCGUCACUCAGCAGGGCAUCUCUGAGAGAAAUGCC [U52G U96C] | 0.55
UACGUAGGUGGUUUUCCCCUGAUAGUGCUGAGGGGGCCUGGAAGUUUGGACUGGGCAGAGCUCAACACAGCGUGGCAAAGUGGCUGUCGCUAGACUGCCUCUCUGGAUUCCUCGUCACUCAGCAGGGCAUCUCUGAGAGAAAUGCC [A30G G88C] | 0.44
UACGUAGGUGGUUUUCCCCUGAUAGUGCUAAGGGGCCCUGGAAGUUUGGACUGGGCAGAGCUCAACACAGCGUGGCAAAGUGGCUGUGGCUAGACUGCCUCUCUGGAUUCCUCGUCACUCAGCAGGGCAUCUCUGAGAGAGAUGCC [G36C A141G] | 1.36
UACGUAGGUGGUUUUCCCCUGAUAGUGCUAAGGGGGCCCGGAAGUUUGGACUGGGCAGAGCUCAACACAGCGUGGCAAAGUGGCUGUGGCUAGACUGCCUCUCUGGAUUCCUAGUCACUCAGCAGGGCAUCUCUGAGAGAAAUGCC [U39C C113A] | 0.33
GACGUAGGUGGUUUUCCCCUGAUAGUGCUAAGGGGGCCCGGAAGUUUGGACUGGGCAGAGCUCAACACAGCGUGGCAAAGUGGCUGUGGCUAGACUGCCUCUCUGGAUUCCUCGUCACUCAGCAGGGCAUCUCUGAGAGAAAUGCC [U1G U39C] | 0.72
UACGUAGGUGGUUUUCCCCUGAUAGUGCUAAGGGGGCCUGGAAGUUUGGACUGGGCAGAGCUCAACACAGCGCGGCAAAGUGGCUGUGGCUAGACUGCCUCUCUGGAUUCCUCGUCACUCAGCGGGGCAUCUCUGAGAGAAAUGCC [U73C A124G] | 0.64
UACGUAGGUGGUUUUCCCCUGAUAGUGCUAAGGGGGCCUGGAAGUUUGGACUGGGCAGAGCUCAACACAGCGUGGCAAUGUGGCUGUGGCUAGACUGCCUCUCUGGAUUCCUCGUCACUCAGCAGGGCAUCUCUGUGAGAAAUGCC [A79U A136U] | 2.6
UACGUAGGUGGUUUUCCCCUGAUAGUGCUAAGGGGGCCUGGAAGUUUGGACUGGGCAGAGCUAAACACAGCGUGGCGAAGUGGCUGUGGCUAGACUGCCUCUCUGGAUUCCUCGUCACUCAGCAGGGCAUCUCUGAGAGAAAUGCC [C63A A77G] | 0.04
UACGUAGGUGGUUUUCCCCUGUUAGUGCUAAGGGGGCCUGGAAGUUUGGACCGGGCAGAGCUCAACACAGCGUGGCAAAGUGGCUGUGGCUAGACUGCCUCUCUGGAUUCCUCGUCACUCAGCAGGGCAUCUCUGAGAGAAAUGCC [A22U U52C] | 1.73
UACGUAGGUGGUUUUCCCCUGAUAGUGCUAAGGGGGCCUGGAGGUUUGGACUGGGCAGAGCUCAACACAGCGUGGCAAAGUGGCUGUGGCUAGGCUGCCUCUCUGGAUUCCUCGUCACUCAGCAGGGCAUCUCUGAGAGAAAUGCC [A43G A94G] | 0.36
UACGUAGGUGGUUUUCCCCUGAUAGUGCUAAGGGGGCCUGGAAGUUUGGACUGGGCAGAGCUCAACGCAGCGUGGCAAAGUGGCUGUGGCUAGACUGCCUCUCUGGAUUCCUCGUCACUCAGCAGGGCAUCUAUGAGAGAAAUGCC [A67G C133A] | 0.41
UACGUAGGUGGUUUUCCCCUGAUGGUGCUAAGGGGGCCUGGAAGUUUGGACUGGGCAGAGCUCAACACAGCGUGGCAAAGUGGCUGUGGCUAGACUGCCUCUCUGGAUUCCUCGUCACUUAGCAGGGCAUCUCUGAGAGAAAUGCC [A24G C120U] | 1.29
UACGUAGGUGGUUUUCCCCUGAUAGUGCUAAGGGGGCCUGGAAGUUUGGAUUGGGCAGAGCUCAACACAGCGUGGCAAAGUGGCUGUGGCUAGACUGCCUCUCUGGAUUCCUCGUCACUCAGCAGGGCAUCUCUGGGAGAAAUGCC [C51U A136G] | 1.34
UACGUAGGUGGUUUUCCCCUGAUAGUGCUAAGGGGGCCUGGAAGUUUGGACUGGGCAGAGCUCAACACAGCGCGGUAAAGUGGCUGUGGCUAGACUGCCUCUCUGGAUUCCUCGUCACUCAGCAGGGCAUCUCUGAGAGAAAUGCC [U73C C76U] | 2.52
